Results reported in patent US8865222B2, “Beta-casein assemblies for enrichment of food and beverages and methods of preparation thereof” (Technion Research and Development Foundation Ltd., priority 2008, dated 2014).
“Also recorded” adds a separate entry of the source. Marks after values point to notes of the source that are not given here.

Columns and labels:
Format in all cases: physicochemical
[1] = Isothermal titration calorimetry (ITC) demicellization of beta-casein micellar solution
Procedure: (§1) • Cryo-TEM: Specimens were prepared in the controlled environment vitrification system (CEVS) (Bellare et al. Electron Microsc. Technique, 1988, 10; 87-111) at 24° C. and 100% relative humidity to avoid loss of volatiles. First, the solutions were incubated in the CEVS at the desired temperature for 1 h. Then, a 7 μL drop of each solution was placed on a TEM copper grid covered with a perforated carbon film (Pelco International) and blotted with filter paper to form a thin liquid film of the sample (100-200 nm thick). The thinned sample was plunged into liquid ethane at its freezing temperature (−183° C.) to form a vitrified specimen and then transferred to liquid nitrogen ([…]) for storage. The vitrified specimens were examined in a Philips CM120 transmission electron microscope operating at an accelerating voltage of 120 kV. We used an Oxford CT3500 (Oxford Instruments) cryoholder that maintained the specimens below −175° C. during sample transfer and observation. Images were recorded digitally on a cooled Gatan MultiScan 791 CCD camera using DigitalMicrograph 3.1 software (Gatan) in the low-dose imaging mode to minimize beam exposure and electron-beam radiation damage. • ITC: ITC measurements were performed with a VP-ITC calorimeter (MicroCal) at a temperature of 24° C. The reaction cell (V=1.43 mL) was filled with degassed solvent (lactic acid at pH 2.6, or phosphate buffer at pH 7.0). The injector-stirrer syringe (289 μL) was loaded with a beta-casein micellar solution (20 mg/mL). The micellar solution was injected into the reaction cell in 28 steps of 10 μL aliquots each, and the heat flow was measured. During the titration, the stirring speed was 310 rpm. The duration of each injection was 20 s, and the equilibration time between consecutive injections was 3 min. Such an interval was sufficient to equilibrate the reaction cell after every injection. Each experiment was performed at least three times. Calorimetric data analysis was carried out using Origin 5.0 software (MicroCal). • Analytical Ultracentrifugation: Sedimentation equilibrium experiments were performed at 24° C. using a Beckman Optima XL-A (Palo Alto, Calif.) analytical centrifuge at 6000, 10000, and 12000 rpm for the low-pH solutions and at 4000, 6000, and 8000 rpm for the pH 7.0 solutions. Data were collected at 280 nm. The beta-casein solutions were studied at concentrations ranging from 0.2 to 10.0 mg/mL at pH 2.6 and from 0.2 to 2 mg/mL at pH 7.0 and an ionic strength of 0.1. […] The average apparent molecular weight of the micelles at the various protein concentrations was calculated following methods well known in the art (The partial specific volume vj of the solute was taken to be 0.742 cm3/g3, and a solution density F of 1.0044 g/cm3 was measured). At beta-casein concentrations of 2 mg/mL and above under low pH conditions, the plot of the natural logarithm of the measured absorbance versus the square of the radius from the axis of rotation was not linear. To estimate Nagg, the limiting slope toward the outer edge of the sample cell was used to provide dln(c)/dr^2. The molecular weight calculated using this slope was divided by the monomer molecular weight calculated from the beta-casein amino acid sequence (24000).
• Characterization of the beta-casein micelles by ITC: beta-casein micellar solution was titrated into lactic acid buffer (pH 2.6) placed in the ITC cell, and the heat flow was measured as a function of time (FIG. 6A). Three factors contribute to the exothermic enthalpy changes observed at the initial injections: micelle dilution, demicellization, and dilution of individual beta-casein molecules. The enthalpy changes decrease in magnitude as more protein is added and the concentration in the ITC cell increases. Eventually, the concentration in the cell exceeds the CMC and only micelle dilution contributes to the heat flow. […]

[2] = Cryo-TEM of beta-casein micelles and vitamin D loaded assemblies
Procedure: as §1
• Characterization of the beta-casein micelles by cryo-TEM: The structural characteristics of the micelles in the two pH environments were studied by cryo-TEM and SAXS. Cryo-TEM was used to determine the shape of the micelles and to estimate their dimensions between 4 and 40° C. This information was further used to accurately calculate by SAXS the micelles' dimensions and to study how the size and shape are affected by temperature. SAXS measurements also provided the critical micelle concentration (CMC) and the micelle aggregation numbers as a function of temperature. […]

[3] = Storage stability of beta-casein assembly solutions
Procedure: Preparation of beta-casein assemblies: weighted amounts of lyophilized bovine beta-casein are dissolved in low-pH solution (e.g. ˜6% by weight of lactic acid solution or hydrochloride acid solution, ˜pH 2.1), typically at concentrations ranging from 0.1 mg/mL up to at least 50 mg/ml, to the desired pH (2.5-2.8), below the pI. The pH can be adjusted to the desired values using appropriate buffers. Mixing is done at room temperature, and the solution is equilibrated at 4° C. for ˜36 hr, allowing complete solubilization and formation of the protein assemblies. Thereafter, the solutions can be held at any temperature between 1 and 60° C. Similarly, to prepare beta-casein micelles at neutral pH, weighted amounts of lyophilized protein are added to a buffer at neutral pH (e.g., HEPES buffer, or PBS), at concentration ranging from 0.1 mg/ml to ˜40 mg/ml. Complete solubilization of the protein is achieved within ˜36 hr, at 4° C. A transparent solution is obtained, containing unique nano-sized beta-casein assemblies. The protein solutions are filtered through a porous membrane of 0.45 micron pore size. The beta-casein concentration was determined by measuring the absorbance at 280 nm by an Ultrospec 2000 UV/Visible spectrophotometer (Pharmacia Biotech, England), using an extinction coefficient of 4.6(1%) mM^−1cm^−1. […]

[4] = lactic acid solution pH 2.6, 4-40 °C

B1: beta-casein: lyophilized bovine beta-casein (~24 kDa milk protein) self-assembled into nano-sized micelles at low or neutral pH (protein, UniProt P02666 16-224, looked up)
Beta-casein: RELEELNVPGEIVESLSSSEESITRINKKIEKFQSEEQQQTEDELQDKIHPFAQTQSLVYPFPGPIPNSLPQNIPPLTQTPVVVPPFLQPEVMGVSKVKEAMAPKHKEMPFPKYPVEPFTESQSLTLTDVENLHLPLPLLQSWMHQPHQPLPPTVMFPPQSVLSLSQSKVLPVPQKAVPYPQRDMPIQAFLLYQEPVLGPVRGPFPIIV
- heat of demicellization, ΔHdemic ([1]; pH 2.6, 24 °C): ~-4.28 kcal/mol
- CMC ([1]; pH 2.6, 24 °C, ITC): 1.89 mg/mL
- CMC ([1]; pH 2.6, 25 °C row of table, found by ITC (footnote *)): 0.19* wt %
- relative micellization cooperativity (MR) ([1]; pH 2.6, IS 0.002, 24 °C): 0.14 mM
- CMC ([1]; pH 2.6, ITC): 0.079 mM
- heat of demicellization, ΔHdemic ([1]; pH 7.0 and IS of 0.1): -9.687 kcal/mol
- micelle shape ([2]; 20 mg/mL, pH 6.7, 0.05M NaCl, 4 °C and 10 °C): Flat micelles
- micelle shape ([2]; 20 mg/mL, pH 6.7, 0.05M NaCl, 16, 25 and 40 °C): oblate micelles
- micelle shape ([2]; 20 mg/mL, pH 6.7, 0.05M NaCl, 60 °C): Relatively spheroidal micelles
- length of elongated surfaces of micelles [2, 4]: 20-25 nm
- micelle shape [2, 4]: flat disk-like micelles
- micelle thickness [2, 4]: 3-4 nm
- width of micelles ([2]; pH 2.6): about 3.5 nm
- colloidal / storage stability of sterile solution ([3]; sterile): at least several months; also recorded: colloidally stable for months
- storage stability of the solution ([3]; stored at 4 °C): several weeks
